From paper PMC9420396

Experiments:
[1] = biological target: T1, DDX21 helicase core WT (human, UniProt Q9NR30 188-563); experiment: MST
T1 sequence: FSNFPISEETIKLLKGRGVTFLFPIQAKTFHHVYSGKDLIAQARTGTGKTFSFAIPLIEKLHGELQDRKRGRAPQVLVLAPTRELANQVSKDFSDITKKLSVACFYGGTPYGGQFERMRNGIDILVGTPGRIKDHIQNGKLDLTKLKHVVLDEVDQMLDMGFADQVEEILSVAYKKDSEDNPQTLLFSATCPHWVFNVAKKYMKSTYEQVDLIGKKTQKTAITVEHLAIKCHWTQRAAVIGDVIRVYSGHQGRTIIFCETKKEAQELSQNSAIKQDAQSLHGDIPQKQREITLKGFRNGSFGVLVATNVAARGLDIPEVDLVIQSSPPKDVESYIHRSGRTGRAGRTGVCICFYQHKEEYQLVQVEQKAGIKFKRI

[2] = biological target: T1, DDX21 helicase core WT; experiment: SEC co-elution

Binder | binding result [1] | binding result [2]
UUUUUUUUUUUUUUU (ssRNA) [U15 RNA, 5'-FAM] | binds | 
UUUUUUUUUUUUUUU (ssRNA) [U15 RNA (SEC)] |  | binds
